For five molecules, binding result and EC50 results are on record in US20260242730A1 (POINTLOMA BIOSCIENCES, published 2026).

Experiment [1] deals with T1, human PD-L1 (antigen of panning and phage ELISA) (human, UniProt Q9NZQ7 19-238, biotinylated (panning antigen)).
T1 construct: also called biotinylated human PD-L1
Briefly: phage ELISA of clones panned on biotinylated human PD-L1. The source says:
The animal boosted four times every two weeks. After confirming the serum titer against PD-L1, PBMC was isolated and used for phage display library construction. Anti-PD-L1 binders were isolated with the immunized phage display library using liquid phase Biopanning on biotinylated human PD-L1. Stringency was increased during successive rounds by decreasing antigen concentration, increasing the number and duration of washes, and/or changing the duration of selections. The panning process was repeated three to four times until the output phage enrichment was identified. The eluted phages were diluted and spread on a petri dish to grow single colonies. Individual phage clones were selected and amplified. 384 single colonies were selected and tested for specificity by ELISA. […] After sequencing the positive clones, three unique sequences were obtained based on amino acid sequences.
A general note: ELISA stands for enzyme-linked immunosorbent assay.

In experiment [2] the target is T2, recombinant human TROP2 protein (human, UniProt P09758 27-274).
T2 chain: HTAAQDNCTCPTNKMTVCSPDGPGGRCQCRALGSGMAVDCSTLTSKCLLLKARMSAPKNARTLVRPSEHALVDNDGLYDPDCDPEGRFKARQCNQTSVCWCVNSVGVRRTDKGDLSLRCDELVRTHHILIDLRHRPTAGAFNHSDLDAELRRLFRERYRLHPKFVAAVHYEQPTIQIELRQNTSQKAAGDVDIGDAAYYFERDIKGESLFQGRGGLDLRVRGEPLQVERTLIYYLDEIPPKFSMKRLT
Description: binding of TROP2 protein to binder-expressing γδ T cells.

For experiment [3], the target named is T3, recombinant human TROP2 protein (human, UniProt P09758 27-274).
T3 sequence (looked up): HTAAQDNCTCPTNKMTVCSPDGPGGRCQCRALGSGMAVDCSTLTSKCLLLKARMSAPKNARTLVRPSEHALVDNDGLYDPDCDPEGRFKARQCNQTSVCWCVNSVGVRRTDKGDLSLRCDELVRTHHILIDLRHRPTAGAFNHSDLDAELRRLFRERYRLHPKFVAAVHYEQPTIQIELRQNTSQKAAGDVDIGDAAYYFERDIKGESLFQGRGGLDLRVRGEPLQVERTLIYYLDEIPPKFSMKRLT
Description: flow cytometry, titration of TROP2 protein on CAR γδ T cells. (In general: In flow cytometry, cells or beads pass a laser one at a time.)

T1 sequence (Q9NZQ7 19-238 limits assumed): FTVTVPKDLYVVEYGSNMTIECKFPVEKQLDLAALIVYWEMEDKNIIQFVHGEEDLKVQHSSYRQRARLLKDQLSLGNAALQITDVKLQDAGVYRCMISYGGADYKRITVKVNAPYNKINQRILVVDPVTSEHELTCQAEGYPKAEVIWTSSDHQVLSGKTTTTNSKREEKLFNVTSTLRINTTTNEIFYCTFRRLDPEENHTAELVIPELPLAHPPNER

B1: anti-PD-L1 #PD1 VHH (VHH)
VHH: DVQLQESGGGLVQAGGSLRLSCAASESIASINVMGWYRQAPGKQRELVAIITNRGTTSYPDSVKGRFTISRDNGKNTVYLQMNTLKPEDTAVYYCNAPWTDGINYWGKGTQVTVSS
Consider B1, for which, in experiment [1], the binding result is “binds”.

B2: TROP2 CAR with anti-TROP2 VHH #TP9, on γδ T cells (other)
chain: QVQLVESGGGLVQPGGSLRLSCAASGFSLDYWAIAWFRQAPGKEREGVSCSGSRGSTHYADSVKGRFTISRDNAKNTVYLQMNSLKPEDAGVYYCAVGSTLYSLTPYEYDYWGQGTQVTVSSTTTPAPRPPTPAPTIASQPLSLRPEACRPAAGGAVHTRGLDFACDIYIWAPLAGTCGVLLLSLVITLYCKRGRKKLLYIFKQPFMRPVQTTQEEDGCSCRFPEEEEGGCELRVKFSRSADAPAYQQGQNQLYNELNLGRREEYDVLDKRRGRDPEMGGKPRRKNPQEGLYNELQKDKMAEAYSEIGMKGERRRGKGHDGLYQGLSTATKDTYDALHMQALPPR
By EC50 is commonly meant the concentration giving half of the maximal effect. For the molecule B2, the EC50 in experiment [2] stood at 18.1 nM.

B3: anti-PD-L1 #PD2 VHH (VHH)
VHH: DVQLQESGGGLVEPGGSLRLSCAASGFTFNHYGMSWVRQAPGKGLQWVSTLFTTGSSQYANSVKGRFTISRDAAENTLYLHMNNLKPEDTAVYFCAKGVGLGSERGPGTQVTVSS
For the molecule B3, the binding result in experiment [1] is on record as “binds”.

B4: anti-PD-L1 #PD3 VHH (VHH)
VHH: DVQLQESGGGLVQAGDSLGLSCAASGRAFSLFEMAWYRQAPGKAREFVAAIMWRGGHTVYADSVKGRSTISSDNTKNTVYLQMNSLKPEDTAIYYCRGKVVGSDYWGQGTQVTVSS
As to B4, the binding result in experiment [1] is listed as “binds”.

B5: TROP2 CAR with anti-TROP2 #PL02 scFv (VL-linker-VH) adopted from monoclonal antibody hRS7, on γδ T cells (other, not shown: small tags and cut ends)
chain: DIQLTQSPSSLSASVGDRVSITCKASQDVSIAVAWYQQKPGKAPKLLIYSASYRYTGVPDRFSGSGSGTDFTLTISSLQPEDFAVYYCQQHYITPLTFGAGTKVEIKGGGGSGGGGSGGGGSQVQLQQSGSELKKPGASVKVSCKASGYTFTNYGMNWVKQAPGQGLKWMGWINTYTGEPTYTDDFKGRFAFSLDTSVSTAYLQISSLKADDTAVYFCARGGFGSSYWYFDVWGQGSLVTVSS
notes: CAR on γδ T cells
Turning to B5, the binding result in experiment [3] is “binds”. In addition, the EC50 in experiment [2] turned out to be 6.81 nM.
